*1 amine or outer side, *2 acyl side, *3 side chain or, on linkers, in order; H or OH if unused. Where no end group is shown, it is not given here. Side-chain parts run from the residue outwards. [ ]: non-standard residue; d: D form. The star is where a group is joined. C20 diacid = O=C(O)CCCCCCCCCCCCCCCCCCC(=O)*; C18 diacid = O=C(O)CCCCCCCCCCCCCCCCC(=O)*; γGlu = O=C(O)[C@H](CCC(=O)[*:2])N[*:1]; Aib = CC(C)(N)C(=O)O
B1: Compound 21 (peptide)
peptide: YXEGTFTSDLSIXLEKQAQXAFIRHLINKXTRQRY
modifications: Aib at 2, 13, 20, 30; Lys29 epsilon-amino acylated with C20DA-gGlu-gGlu-gGlu-gGlu-gGlu-gGlu-eLys; C-terminal amide
B2: Compound 45 (peptide)
peptide: YXEGTFTSDYSIXLEKQAQXEFVRHLINKLTRQRY
modifications: Aib at 2, 13, 20; Lys29 epsilon-amino acylated with C18DA-gGlu-gGlu-gGlu-gGlu-gGlu-AHX; C-terminal amide
B3: Compound 68 (peptide)
peptide: YXEGTFTSDYSIXLEKQAQXAFVRHLIAKXTRQRY
modifications: Aib at 2, 13, 20, 30; Lys29 epsilon-amino acylated with C18DA-gGlu-gGlu-gGlu-gGlu-gGlu-gGlu-eLys; C-terminal amide
B4: Compound 41 (peptide)
peptide: YXEGTFTSDYSIXLEKQAQXAFVRHLINKITRQRY
modifications: Aib at 2, 13, 20; Lys29 epsilon-amino acylated with C18DA-gGlu-gGlu-gGlu-gGlu-gGlu; C-terminal amide
B5: Compound 22 (peptide)
peptide: YXEGTFTSDYSIXLDKQAQXAFIRHLINKXTRQRY
modifications: Aib at 2, 20, 30; aMeL at 13; Lys29 epsilon-amino acylated with C20DA-gGlu-gGlu-gGlu-gGlu-gGlu-gGlu-eLys; C-terminal amide
B6: Compound 67 (peptide)
peptide: YXEGTFTSDYSIXLDKQAQXAFVRHLINKXTRQRY
modifications: Aib at 2, 20, 30; aMeL at 13; Lys29 epsilon-amino acylated with C18DA-gGlu-gGlu-gGlu-gGlu-gGlu-gGlu-eLys; C-terminal amide
B7: Compound 81 (peptide)
peptide: YXEGTFTSDYSIXLDKQAQXAFIRHLINKXTRQRY
modifications: Aib at 2, 13, 20, 30; Lys29 epsilon-amino acylated with C20DA-gGlu-gGlu-gGlu-gGlu-gGlu-gGlu-eLys; C-terminal amide
B8: Compound 37 (peptide)
peptide: YXEGTFTSDYSIXLEKQAQXAFLRHLINKXTRQRY
modifications: Aib at 2, 13, 20, 30; Lys29 epsilon-amino acylated with C18DA-gGlu-gGlu-gGlu-gGlu-gGlu-gGlu-eLys; C-terminal amide
B9: Compound 36 (peptide)
peptide: YXEGTFTSDYSIXLEKQEQXAFVRHLINKXTRQRY
modifications: Aib at 2, 13, 20, 30; Lys29 epsilon-amino acylated with C18DA-gGlu-gGlu-gGlu-gGlu-gGlu-gGlu-eLys; C-terminal amide
B10: Compound 28 (peptide)
peptide: YXEGTFTSDYSIXLEKEAQXAFVRHLINKXTRQRY
modifications: Aib at 2, 13, 20, 30; Lys29 epsilon-amino acylated with C20DA-gGlu-gGlu-gGlu-gGlu-gGlu-gGlu-eLys; C-terminal amide
B11: Compound 33 (peptide)
peptide: YXEGTFTSDYSIXLDKIAQXAFVRHLINKXTRQRY
modifications: Aib at 2, 13, 20, 30; Lys29 epsilon-amino acylated with C18DA-gGlu-gGlu-gGlu-gGlu-gGlu-gGlu-eLys; C-terminal amide
B12: Compound 74 (peptide)
peptide: YXEGTFTSDYSIXLDKQAQXAFVRHLINKXTRQRY
modifications: Aib at 2, 13, 20, 30; Lys29 epsilon-amino acylated with C20DA-gGlu-gGlu-gGlu-gGlu-gGlu-gGlu-eLys; C-terminal amide
B13: Compound 27 (peptide)
peptide: YXEGTFTSDYSIXLEKQAQXAFVRHLINKLTRQRY
modifications: Aib at 2, 13, 20; Lys29 epsilon-amino acylated with C20DA-gGlu-gGlu-gGlu-gGlu-gGlu-gGlu-eLys; C-terminal amide

Key:
Test in all cases: cell-based or functional assay
human GLP-1 receptor = human GLP-1 receptor (human, UniProt P43220 24-463)
human GIP receptor = molecular target: T1, human GIP receptor (human, UniProt P48546 22-466)
T1 sequence (looked up): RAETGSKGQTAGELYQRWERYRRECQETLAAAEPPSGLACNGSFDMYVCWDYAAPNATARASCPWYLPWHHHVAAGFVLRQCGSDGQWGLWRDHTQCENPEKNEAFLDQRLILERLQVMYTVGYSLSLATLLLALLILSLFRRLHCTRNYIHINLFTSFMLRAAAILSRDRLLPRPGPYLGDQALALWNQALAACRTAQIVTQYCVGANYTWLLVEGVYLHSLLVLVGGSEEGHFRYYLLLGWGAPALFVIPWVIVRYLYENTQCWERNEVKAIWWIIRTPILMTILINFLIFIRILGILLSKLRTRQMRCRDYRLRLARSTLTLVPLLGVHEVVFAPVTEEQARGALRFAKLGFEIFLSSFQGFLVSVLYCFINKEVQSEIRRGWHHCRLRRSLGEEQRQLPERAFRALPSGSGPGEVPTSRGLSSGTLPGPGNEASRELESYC

[1] = molecular target: T2, human neuropeptide Y2 receptor (human, UniProt P49146 1-381)
T2 sequence (looked up): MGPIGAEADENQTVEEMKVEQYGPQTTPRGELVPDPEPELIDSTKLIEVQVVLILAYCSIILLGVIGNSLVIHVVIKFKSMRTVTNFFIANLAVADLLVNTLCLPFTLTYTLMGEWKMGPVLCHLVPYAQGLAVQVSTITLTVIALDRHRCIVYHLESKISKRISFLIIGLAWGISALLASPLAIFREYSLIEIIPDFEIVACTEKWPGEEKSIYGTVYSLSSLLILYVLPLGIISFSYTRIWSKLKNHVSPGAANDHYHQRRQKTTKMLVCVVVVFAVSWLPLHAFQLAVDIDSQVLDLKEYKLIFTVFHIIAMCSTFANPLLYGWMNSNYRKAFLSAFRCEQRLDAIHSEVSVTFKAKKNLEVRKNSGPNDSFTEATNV

Binder	EC50, CreLuc reporter, 0.5% hP (human GLP-1 receptor) [nM]	EC50, CreLuc reporter, 0.5% hP (human GIP receptor) [nM]	EC50, CreLuc reporter, 0.5% hP [1] [nM]	EC50, CreLuc reporter, 100% hP [1] [nM]	EC50, CreLuc reporter, 100% hP (human GLP-1 receptor) [nM]	EC50, CreLuc reporter, 100% hP (human GIP receptor) [nM]
Y[Aib]EGTFTSDYSI[Aib]LEKQAQ[Aib]AFVRHLINK([γGlu-γGlu-γGlu-γGlu-γGlu-γGlu-C18 diacid])LTRQRY-NH2 [Compound 12]	1.8	0.8	47.6	140		
Y[Aib]EGTFTSDLSI[Aib]LEKQAQ[Aib]AFVRHLINK([γGlu-γGlu-γGlu-γGlu-γGlu-γGlu-C20 diacid])[Aib]TRQRY-NH2 [Compound 51]	4.5	0.5			16.3	13.8
Y[Aib]EGTFTSDYSI[Aib]LEKQAQ[Aib]EFVRHLINK([γGlu-γGlu-γGlu-γGlu-γGlu-γGlu-C18 diacid])[Aib]TRQRY-NH2 [Compound 56]		0.4			7.1	19.3
B1	4.8	0.2	6.5	111	13.9	5.6
B2	0.5	0.3	19.8	224		19.6
B3	0.6	0.2	150	690	3.3	3
B4	0.9	0.3	49.2	71.3	5	7.1
B5	0.2	0.1	8.8	72	0.6	
B6	0.1	0.1	18.1	112	0.6	1.7
B7	0.6	0.5	7.2	52.4	3.8	
B8	5.8		11.9	41.3	9.1	15.5
B9		8.8	30.1	95.2	16.9	41.4
B10	8	19.3	24	297	14.8	208
B11	0.1	0.7			1	18.7
B12	0.4	0.5	7.1	90.6	3.3	
B13		0.6		69.1	20.8	16.3
Y[Aib]EGTFTSDYSI[Aib]LEKQAQ[Aib]AFVRHLINK([γGlu-γGlu-γGlu-γGlu-γGlu-γGlu-C20 diacid])[Aib]TRQRY-NH2 [Compound 3]	3	0.7	37.9	147	13.9	
Y[Aib]EGTFTSDYSI[Aib]LEKQAQ[Aib]AFVRHLINK([γDab-γGlu-γGlu-γGlu-γGlu-γGlu-γGlu-C20 diacid])[Aib]TRQRY-NH2 [Compound 46]		0.8	28.4	70.5	5.3	7.2

From patent US20250382344A1, “Soluble GLP1/GIP/NPY2 Receptor Triple Agonists” (Boehringer Ingelheim International GmH, priority 2024, published 2025)
